From the DeepSol protein solubility set

assay: soluble on expression in E. coli; label from the status in PepcDB or PDB records

| Sequence | soluble on expression in E. coli |
| --- | --- |
| MSTETDSILAAFEKFNTIIIHRHINPDPDAIGSQTGLALLLRAAYPAKTIYTAGPAAPDLAWIGPQQQVSAEAYTGALVVVIDTSNRERIAGDHFDQGAMLIKIDHHLDEDQLGTINWVDTHASSASEMVWDLVRHSPQLQLTKAAATALYAGIIGDTGRFLYDLTTARTHQAAADLLATGIDAAAIGRQEDQFPENVGRLIGWALENVKITDTGAGSLLITKAVLAQFGLAYGEEQRAVGNIGKLASIDRWVVFTERTDGSYRVELRGKTKEINTLAVQHGGGGHPLASGAVADNAAELHAIEEELASLLEHHHHHH | soluble |
| MSTQTVTIKSLGAQGDGIAHCPDGPVYVPFALPGETVAIAKVKDQGTVMSITEASADRRDPVCRHFGPEGINGTCGGCSLQHLADQPYHAFKRELVVSALRSKGLTPPVDDLVICRPGERRRAVFAARKTEKGLLLGFSQANSHHIVAIEECPVTSPGIVSRFDAIRAIGLSMVANAEPFRITVLETLSGLDISVEGIKSVNDKQRRTLTETVLAMRGIARVSLSGEILIEPQKPIIEFGGIPVSPPAGGFTQATKQAEDAMAELMLAHVGKSKRIADLFCGSGTFALRLARIGRVHAVEAEDKALKALDFAARNTQGLKPVSVEKRDLFRRPLMTSELKNYDAVVFDPPRAGAEVQCKELARSTVKKIVAVSCNPLTLARDLAILTEGGYRVTRVTPVDQFLWSPHVEAVAVLEK | not soluble |
| MSTSKRPYKILLRKVESKEENKKDTNETKKKEEESKHYEDRHYRKNDIKHYEENEKTIKSKMHYNSRNRYYDKYSMSYSRYDEKLNKQHSSEKKKDVLVPLLEQASINIKKKKIIIRKLPPTLTEENFFDSFSNNIKDELDYYYFVNGSASKDSSNDIIYSRMYLSFKDDMKTDEFIRTQNGKFFYDLNGVKYKALVSYAPNQTLIKKNKPDSRNNTLESDEYFLKCCEEMNNPVQRVKKDIDYSELINVQTENGAILSPIVIELRSKKKK | not soluble |
| MSTSTVETGYGGRIRVTVARNDRDITSEVRTFLCNKENANKIIGLDTERSVVGGDSEYPPESKLVILELSDGQNCLIIPLPYVQGNKLPVSLTNFLNLPDFTFTGVGINKALKMLKSECGLTCKNAVDIGPSSPIYEDWDNDSLTEDQINLAAANAYLAFKVGNLIREAMY | soluble |
| MSTTPGTPHGVTHSLMEQGWYWADADRSAVSKALSDQPDGSFIVRNASTPGDYTLSVKFAAQVKLLRIVVKDGKCGFNTDSLTHDSVVRLIEFHRNISLNIFNDALDVRLLYPVSVRRNSQNGKPFFKKGQLQQRMILSAKNDHDWRERLEMENLRAVHLAFERGAKLYDSAHQEMERAESLYHALNQSVRDNEIKLGKLNNLLEAETDVVTQIQGSQTTSEMLKGAFANNKTFVEESIRRINTELTSSKDKKKTLSGILDEIAMKRSNSKTRLCKLMELRSAVYDKMEPALCSRMAAMLDAGAEMINSEPTKVTQLLVDMELKWTPAQYLMCGTSKENAANALIHARYRIAQLDKAVGLKREPQDGIFLIRGSSSHGDKLVLSVLHGERVSHCLIEQNEEGWGFEHSNVYLTTISDFVRYYSHFSLETHADAIKTPLRTPAFDAVTSDTSKPLRNGPGQVFTALPISRKYMEKALLTDDPTKPPESPEPRPDSWDSPSPDTPSSSDSRLVHPTTLPKSIPE | not soluble |
| MSTVPISGRSQIMLVQDSEILSSSALQYKQFLSKVKISKNATSTAQVRRVGQKVAAATMLYLKQNGLGDMASQMKWEFNVVEDKAVNAFCMPGGKIVVYTGLLKLVGSDAELATVISHEVSHAVARHSNERISQEYLRQMGGNILGAAVSNKSAALQTVIGQAYGIGSQVLITLPYNRKQEYEADKIGLVFMAMAGYNPNAAITFWQKMAAQGNGRVEFLSTHPSDANRIAAIRQYMPEAMKHYKSKLEHHHHHH | soluble |
| MSTVRSIYYRGSLEHCNYTCSYCPFGRKSVSADTTEDQEALDRFISRIGGWKYGSLRILIIPYGEAMIHRYYREGIMRLAAMPHVIGVSCQTNLSFSVSRFLDEAEAEQADVSKFRFWASYHPEMVGVGEFASKVEMLRAAGIGVCAGAVGDPSAKEQIRKLRQLLDPSVYLFVNAMQGLRKPLSEEDIRFFGEIDNLFDYDRRNAKACLDGCVGGRETLFIDRKGDMYACPRSGIRMGNFYDDSTSDFQPFCLRKVCDCYIAFSNLCDTPLRRMMGDGALWRIPERKKVEAVFFDVDGTLTDAQGRIPDRTVSVLEYMAKRLPLYLSTALPVSHAKKRLGNVFGLFSGGVFADGGLLCYGETIECVPIANPMTAGFPGCRVTRYTREGKVFKYAVLAPNTREAVRWLTELDEEAYQLYQEGRLLTVVDSKASKKNGLITLCARLGISLREVLVVGNTMHDWPMMSVAGYSCAVMDAEEKLRKLSGYVLNPDSIPVFFDILEHHHHHH | not soluble |
| MSVIIVGGGMAGATLALAISQFSHGTLPVHLIEAKAPEADGHPGFDARAIALAAGTCQQLARIGVWLAISDCATAINTVHVSDRGHAGFVTLDAQDYSLAALGHVAELHDIGLRLFALLRKAPGVTLHCPERVASVSRTQQQVNVTLENGNVIAGSVLVAANGTHSALASACGVDWHQEPYEQLAVIANVATAIPHQGRAFERFTPNGPLAMLPMSHGRCSLVWCHPLDQRDEVLSWSDAQFCHALQAAFGWRLGRITQAGKRSAYPLALTTAAKVFTHRTVVVGNAAQTLHPIAGQGFNLGLRDVMSLAETLVAAQDAGEDIGAWHVLSRYQQRRQVDRDTTIGVTNGLVHLFANRWAPLVIGRNIGLMAMELLPPARDALAQRTLGWVARLEHHHHHH | soluble |
| MSVIRLHQYQVVGRALPTEKDEQPKIYRMKLWATNEVLAKSKFWYYLRRQKKVKKSNGQMLAINEIFEKNPTTIKNFGIWLRYQSRTGYHNMYKEYRDTTLNGAVEQMYTEMASRHRVRFPCIQIIKTATVPASLCKRESTKQFHNSKIKFPLVFRKVRPPTRKLKTTFKANKPNLFM | soluble |
| MSVKKLENGQYQVDVSFGFDPITGERIRTRPVASTRKEALELEAKLRREFQEERARKSRSVSFPTLISIYLASCEIDSKPNYYQNQKYIINKHISDYFLKSDIQKITHREITDFRKHLMETGLSNKSVNNIMTSLSKIFDTAVHEEILKRNPCDNVKRLPLTRKKMKFWRPEEFKKFISLIPQDQLLFKTFYTVAFLTGLRCGEMLALQWKDIDKILLEIDVHKSCTWLDGQFVVTTPKTKNSIRRVSINKKLLKLLERWKEAQEELFNELGIRHSHDTYIFQYKDTPSRKDIFSRKIKYFCKDSDLTPIRLHDFRHSHVALLIHQGEDYITIKERLGHGSVKTTIDVYGHLYPNKQKEMADKLDDLL | not soluble |
| MSVKSDSRHLYLRVIDHIKEKIKDGAYKERQKLPSEFDLAKELGVSRATLREALRILEEENVVIRRHGVGTFVNAKPLFSSGIEQLSSITDMISSVGKTPGTIFLSSSTTSLTEEEKEKFNSEDGFNAVMIERVRTADGEPVVYCIDKLAKEILPDLSGYNEESLLTVIHNNTHKRITYAVAHIEPIGYHPKISPILECEPETALLVLKQMHYDQNDEPILYSINYFRADKFSFHVLRKRM | not soluble |
| MSVNVRPVKRFVEEQKKKNPEIKLSEKATQLLTDMPKMDSPEKLFNLEDKIATEMGSDRIFEEFLQDYAFLRNAVEEYLDGKPTSSDTISKIARLRRNTRLTHYGTALMRKEVAERMENVDAKLLQLQNVTSEVQHIQKEIDRCLDFSAGDEELELVPFEQFHTEASEILANETADNEHEQYLARLKFENEQRRELLSTLNELEGRRNVLQSDIRGKEVRLQGLKPKLEDLTKVAEPVFEMVGAKFKDLSIEGEQRKLSLQLPAPLAVAHIHAAAYKEIHDGEYSKILRNFLYKYKLFEFRILGTNDTEKQSKDETEAMKRKRKEDETTQEKINKMASELLEVHPMSLEFEIECSENIKISMQIQYLTELKVTTAKWHINTDSKLKKSPFFSIDSLMSDLFENDTGDKCPNDVGEMKIEHLKMNFNSSAKQIGKPFKFIQEISGSEGETDRIGATEHLRKVITTIRTRISNRAVLDGIIRDLESKKTDDLNLEPEVKINSFKICDDESFIASIPTSLTKKISNSAATDRFSYKIEASDGNGRKLTAYISIPADYPRHTALFGIAAPEDSESSTEVARQIEDRLNTEAHYVDDVKSIKEQLSLLLKHIDLS | not soluble |
| MSVPPGSIIVSDWHRCPDSREFFSKILHKKRRRKFGKTGVGKSALAARLAGLDLPKMHYETTGIETTVVFWPVRLKESGRVLFFRFELWDCGESAMRRFDHMLLSCKEKVDAILFLFSFTDRGSFDDLTNQISRITEPSDRVVKLVVGTKRDGERRDTFSGGVGSSGFPCGR | not soluble |
| MSVPSSLSQSAINANSHGGPALSLPLPLHAAHNQLLNAKLQATAVGPKDLRSAMGEGGGPEPGPANAKWLKEGQNQLRRAATAHRDQNRNVTLTLAEEASQEPEMAPLGPKGLIHLYSELELSAHNAANRGLRGPGLIISTQEQGPDEGEEKAAGEAEEEEEDDDDEEEEEDLSSPPGLPEPLESVEAPPRPQALTDGPREHSKSASLLFGMRNSAASDEDSSWATLSQGSPSYGSPEDTDSFWNPNAFETDSDLPAGWMRVQDTSGTYYWHIPTGTTQWEPPGRASPSQGSSPQEESQLTWTGFAHGEGFEDGEFWKDEPSDEAPMELGLKEPEEGTLTFPAQSLSPEPLPQEEEKLPPRNTNPGIKCFAVRSLGWVEMTEEELAPGRSSVAVNNCIRQLSYHKNNLHDPMSGGWGEGKDLLLQLEDETLKLVEPQSQALLHAQPIISIRVWGVGRDSGRDFAYVARDKLTQMLKCHVFRCEAPAKNIATSLHEICSKIMAERRNARCLVNGLSLDHSKLVDVPFQVEFPAPKNELVQKFQVYYLGNVPVAKPVGVDVINGALESVLSSSSREQWTPSHVSVAPATLTILHQQTEAVLGECRVRFLSFLAVGRDVHTFAFIMAAGPASFCCHMFWCEPNAASLSEAVQAACMLRYQKCLDARSQASTSCLPAPPAESVARRVGWTVRRGVQSLWGSLKPKRLGAHTP | soluble |
| MSVQDTKAVEFSMGHIRSSSVSLVAEATSNTNSEDKLSKVQLYEDLCRYEDTLSKLVESVDRFKPNLDIAKDLIRTDEALFENVKLLAEYDNIYRNLQKIDKDSEELDSKTRKILEILNECHDELKALPMLEQVEFEKNTILQQRSKINSTELLDYATKLSKFTKIPPTFDKGAVGPNNFIWPAEDALRRGMLAMASLHSKELTRIPGEEVEETEVPTVPPSQSEEQKGQMAKKEGTPKTDSFIFDGTAKEVGDEADNTKDKEKEENNDDALDLDLDLFDPDDF | soluble |
| MSVSARSAAAEERSVNCGTMAQPKNLEGYVGFANLPNQVYRKSVKRGFEFTLMVVGESGLGKSTLINSLFLTDLYSPEYPGPSHRIKKTVQVEQSKVLIKEGGVQLLLTIVDTPGFGDAVDNSNCWQPVIDYIDSKFEDYLNAESRVNRRQMPDNRVQCCLYFIAPSGHGLKPLDIEFMKRLHEKVNIIPLIAKADTLTPEECQQFKKQIMKEIQEHKIKIYEFPETDDEEENKLVKKIKDRLPLAVVGSNTIIEVNGKRVRGRQYPWGVAEVENGEHCDFTILRNMLIRTHMQDLKDVTNNVHYENYRSRKLAAVTYNGVDNNKNKGQLTKSPLAQMEEERREHVAKMKKMEMEMEQVFEMKVKEKVQKLKDSEAELQRRHEQMKKNLEAQHKELEEKRRQFEEEKANWEAQQRILEQQNSSRTLEKNKKKGKIF | not soluble |
| MSVSHAQLKAFHAVAVYGSFTRAAERLFLTQPAVSDQVRKLEERYGVLLFHRNKRSVRLSELGERLLAVTQRLFAIEAEAEELLSASSALQTGTLTLAVDAPVHVLPQIARFCERYPGIAVRVETGNTDESLQRLFSYQADLALLGRDVSDERLLSLTLRNDPIVAFVSLSHPWAGRESIRLADLDDMPLVLREQGSVTRQTLEEEMSRAGLRICPAIQVEGREASREAVVAGIGVGVVSAAEFGADTRVHALPIVDCQRRLTETLVCLREQRSRRIVETFLDLVGEDLPAPS | not soluble |
| MSVTMSEAFDYSMIDNILSEHGTSETAIIAILQSIQEEYHYIPKEVFPYLSKKLKVSEARIFSVATFYENFSLEPKGKYIIKVCDGTACHVRKSIPIIERLRKELGLSGTKPTTDDLMFTVETVSCLGACGLAPVITVNDKVYAEMTPDKASELIKQLREGDADA | not soluble |
